The text below walks through data of PMC6957489.

For assay [1], the target named is t-SNARE heterodimer with syntaxin-1A labeled at position 203 with cy5 (N-N FRET pair) (rat) (UniProt P32851). The experiment in a line: FRET or BRET; single-molecule FRET (prism-based TIRF, 100-ms resolution) between cy3-syb2 in v-SNARE 13 nm nanodiscs (ND1) and cy5-syntaxin-1A in t-SNARE nanodiscs; NDs (5 µM) incubated at room temperature 30 min, diluted to 10 pM; no syt1; with EGTA or 500 µM free Ca2+ (Ca2+ had no effect); 100 mM KCl, 25 mM HEPES pH 7.4. (In general: In BRET a luciferase serves as donor, and the signal depends on an acceptor being close.)

The target of assay [2] is t-SNARE heterodimer with syntaxin-1A labeled at position 241 with cy5 (C-C FRET pair) (rat) (UniProt P32851). Briefly: FRET or BRET; single-molecule FRET as above, with full-length syt1 co-reconstituted in the v-SNARE nanodisc; values in the absence of Ca2+ (EGTA); subsequent Ca2+ (500 µM free) had only subtle effects, with an increase in the highest C-C FRET peak.
The target is the same in assay [3]. The experiment in a line: FRET or BRET; single-molecule FRET (prism-based TIRF, 100-ms resolution) between cy3-syb2 in v-SNARE 13 nm nanodiscs (ND1) and cy5-syntaxin-1A in t-SNARE nanodiscs; NDs (5 µM) incubated at room temperature 30 min, diluted to 10 pM; no syt1; with EGTA or 500 µM free Ca2+ (Ca2+ had no effect); 100 mM KCl, 25 mM HEPES pH 7.4.

“syb2 labeled at position 33 with cy3 (N-N FRET pair) (from UniProt P63045 1-116) (natural protein)”: the FRET ratio (R), peak of the distribution, N-N pair in assay [1] stood at 0.7.
Take “syb2 labeled at position 72 with cy3 (C-C FRET pair) (from UniProt P63045 1-116) (natural protein)”: in assay [2], the FRET ratio (R), C-C pair, first of three states (with apo-syt1) was 0.2; the FRET ratio (R), C-C pair, second of three states (with apo-syt1) was 0.5; the FRET ratio (R), C-C pair, third of three states (with apo-syt1) turned out to be 0.7. Besides, in assay [3], the FRET ratio (R), peak of the distribution, C-C pair stood at 0.2.
